According to PMC3733117:

Target: DNA polymerase beta I260Q (rat, UniProt P06766 1-335, I260Q)
Assay: X-ray crystallography

B1: cocrystallization primer/template (dsDNA)
DNA 1: ATGTGAG
DNA 2: CAAACTCACAT
B1: binds.
